We go through 12 molecules from article PMC7608686, “The interaction of DNA repair factors ASCC2 and ASCC3 is affected by somatic cancer mutations” (Nature Communications, 2020).

Sequences and labels used below:
T1: ASCC2^1-434 (human, UniProt Q9H1I8 1-434)
T1 chain: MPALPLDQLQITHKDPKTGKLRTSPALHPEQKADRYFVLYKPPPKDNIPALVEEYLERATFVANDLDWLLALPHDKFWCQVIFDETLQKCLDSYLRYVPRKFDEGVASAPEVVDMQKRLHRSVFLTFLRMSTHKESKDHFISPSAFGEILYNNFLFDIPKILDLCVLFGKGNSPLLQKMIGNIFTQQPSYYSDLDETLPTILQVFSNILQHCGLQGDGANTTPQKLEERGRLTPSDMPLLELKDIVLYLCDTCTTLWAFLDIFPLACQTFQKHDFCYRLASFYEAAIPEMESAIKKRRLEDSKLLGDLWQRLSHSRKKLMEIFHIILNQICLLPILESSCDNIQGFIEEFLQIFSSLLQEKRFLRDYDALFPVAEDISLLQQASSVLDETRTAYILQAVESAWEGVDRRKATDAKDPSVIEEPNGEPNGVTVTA

T2: ASCC3^1-22 peptide R5L (human, UniProt Q8N3C0 1-22, R5L, C-terminal amination)
T2 construct: ASCC3, human, N-terminal 22 residues with the somatic cancer substitution R5L; source: synthetic peptide (GL biochem)
T2 peptide (looked up): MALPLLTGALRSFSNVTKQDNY

T3: ASCC3^1-22 peptide R5H (human, UniProt Q8N3C0 1-22, R5H, C-terminal amination)
T3 construct: ASCC3, human, N-terminal 22 residues with the somatic cancer substitution R5H; source: synthetic peptide (GL biochem)
T3 peptide (looked up): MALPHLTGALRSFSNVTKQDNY

T4: ASCC3^1-22 peptide R5G (human, UniProt Q8N3C0 1-22, R5G, C-terminal amination)
T4 construct: ASCC3, human, N-terminal 22 residues with the somatic cancer substitution R5G; source: synthetic peptide (GL biochem)
T4 peptide (looked up): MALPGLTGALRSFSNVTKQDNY

T5: ASCC3^1-22 peptide R5C (human, UniProt Q8N3C0 1-22, R5C, C-terminal amination)
T5 construct: ASCC3, human, N-terminal 22 residues with the somatic cancer substitution R5C; source: synthetic peptide (GL biochem)
T5 peptide (looked up): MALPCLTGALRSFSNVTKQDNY

T6: ASCC2^1-434, elastase fragment of ASCC2^FL (human, UniProt Q9H1I8 1-434)
T6 construct: Proteolytic fragment; also called approximately 50 kDa fragment of ASCC2; source: elastase digestion of the purified ASCC2^FL-ASCC3^NTR complex (proteins from insect cells); not shown: His10, N-terminal, cleaved
T6 sequence (looked up): T1 chain

T7: Seleno-methionine (SeMet)-derivatized ASCC2^1-434 (human, UniProt Q9H1I8 1-434, seleno-methionine (SeMet) in place of methionine)
T7 construct: Unmodified complex (co-produced in High Five cells) was crystallized too; the structure was solved by SAD with the SeMet complex; source: E. coli BL21 (DE3), PASM-5052 medium with SeMet, purified (Ni-NTA, SEC); not shown: His6, N-terminal, cleaved
T7 sequence (looked up): T1 chain

T8: Full-length ASCC2 (ASCC2^FL) (human, UniProt Q9H1I8 1-757)
T8 construct: from a synthetic gene (GeneArt); TEV-cleavable tag; source: insect cells (High Five), recombinant, purified (Ni-NTA, SEC); not shown: His10, N-terminal, cleaved
T8 sequence (looked up): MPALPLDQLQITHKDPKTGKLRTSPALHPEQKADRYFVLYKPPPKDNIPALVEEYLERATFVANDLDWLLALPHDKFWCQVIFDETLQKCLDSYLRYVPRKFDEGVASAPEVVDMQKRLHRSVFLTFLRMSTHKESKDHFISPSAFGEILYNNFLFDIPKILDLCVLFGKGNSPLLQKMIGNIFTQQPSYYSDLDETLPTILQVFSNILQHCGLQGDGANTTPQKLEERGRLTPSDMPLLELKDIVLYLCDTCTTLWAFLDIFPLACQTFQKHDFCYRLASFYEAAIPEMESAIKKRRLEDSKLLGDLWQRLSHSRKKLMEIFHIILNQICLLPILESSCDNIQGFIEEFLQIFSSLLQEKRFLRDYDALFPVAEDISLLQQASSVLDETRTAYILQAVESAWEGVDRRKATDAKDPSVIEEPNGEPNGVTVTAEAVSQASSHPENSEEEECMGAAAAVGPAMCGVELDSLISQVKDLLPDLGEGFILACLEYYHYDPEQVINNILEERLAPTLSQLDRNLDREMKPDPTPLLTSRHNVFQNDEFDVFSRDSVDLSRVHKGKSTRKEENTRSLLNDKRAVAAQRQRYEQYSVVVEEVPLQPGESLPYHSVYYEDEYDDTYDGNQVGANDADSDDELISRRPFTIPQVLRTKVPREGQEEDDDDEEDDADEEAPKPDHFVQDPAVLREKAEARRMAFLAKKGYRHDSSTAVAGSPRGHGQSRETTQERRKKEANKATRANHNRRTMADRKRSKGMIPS

B1: ASCC3^1-22 peptide R5C (peptide)
peptide: MALPCLTGALRSFSNVTKQDNY-NH2
B2: ASCC3^1-161 (domain or fragment, human, UniProt Q8N3C0 1-161, looked up)
chain: MALPRLTGALRSFSNVTKQDNYNEEVADLKIKRSKLHEQVLDLGLTWKKIIKFLNEKLEKSKMQSINEDLKDILHAAKQIVGTDNGREAIESGAAFLFMTFHLKDSVGHKETKAIKQMFGPFPSSSATAACNATNRIISHFSQDDLTALVQMTEKEHGDRV
notes: ASCC3, human, residues 1-161 (lacks the C-arm); source: E. coli BL21 (DE3), purified (Ni-NTA, SEC); not shown: His6, N-terminal, cleaved
B3: ASCC3^16-197 (domain or fragment, human, UniProt Q8N3C0 16-197, looked up)
chain: VTKQDNYNEEVADLKIKRSKLHEQVLDLGLTWKKIIKFLNEKLEKSKMQSINEDLKDILHAAKQIVGTDNGREAIESGAAFLFMTFHLKDSVGHKETKAIKQMFGPFPSSSATAACNATNRIISHFSQDDLTALVQMTEKEHGDRVFFGKNLAFSFDMHDLDHFDELPINGETQKTISLDYK
notes: also called partial N-arm deletion variant; source: E. coli BL21 (DE3), purified (Ni-NTA, SEC); not shown: His6, N-terminal, cleaved
B4: ASCC3^1-22 peptide R5G (peptide)
peptide: MALPGLTGALRSFSNVTKQDNY-NH2
B5: ASCC2^1-434 (domain or fragment, human, UniProt Q9H1I8 1-434, looked up)
chain: T1 chain
notes: source: E. coli BL21 (DE3), purified (Ni-NTA, SEC); not shown: His6, N-terminal, cleaved
B6: ASCC3^1-22 peptide, wild type (peptide, UniProt Q8N3C0 1-22, looked up)
peptide: MALPRLTGALRSFSNVTKQDNY-NH2
notes: ASCC3, human, N-terminal 22 residues; also called WT ASCC3^1-22; source: synthetic peptide (GL biochem)
B7: ASCC3^1-22 peptide R5H (peptide)
peptide: MALPHLTGALRSFSNVTKQDNY-NH2
B8: ASCC3^1-207, elastase fragment of ASCC3^NTR (domain or fragment, human, UniProt Q8N3C0 1-207, looked up)
chain: MALPRLTGALRSFSNVTKQDNYNEEVADLKIKRSKLHEQVLDLGLTWKKIIKFLNEKLEKSKMQSINEDLKDILHAAKQIVGTDNGREAIESGAAFLFMTFHLKDSVGHKETKAIKQMFGPFPSSSATAACNATNRIISHFSQDDLTALVQMTEKEHGDRVFFGKNLAFSFDMHDLDHFDELPINGETQKTISLDYKKFLNEHLQEA
notes: ASCC3, human, N-terminal 207 residues, mapped by mass spectrometric fingerprinting; Proteolytic fragment; also called N-terminal, 207-residue fragment of ASCC3; source: elastase digestion of the purified ASCC2^FL-ASCC3^NTR complex (proteins from insect cells); not shown: His10, N-terminal, cleaved
B9: ASCC3^1-207 (domain or fragment, human, UniProt Q8N3C0 1-207, looked up)
chain: B8 chain
notes: ASCC3, human, residues 1-207; residues 1-186 traced in the model; source: insect cells, recombinant, purified (Ni-NTA, SEC); not shown: His10, N-terminal, cleaved
B10: ASCC3 N-terminal region (ASCC3^NTR; residues 1-400) (domain or fragment, human, UniProt Q8N3C0 1-400, looked up)
chain: MALPRLTGALRSFSNVTKQDNYNEEVADLKIKRSKLHEQVLDLGLTWKKIIKFLNEKLEKSKMQSINEDLKDILHAAKQIVGTDNGREAIESGAAFLFMTFHLKDSVGHKETKAIKQMFGPFPSSSATAACNATNRIISHFSQDDLTALVQMTEKEHGDRVFFGKNLAFSFDMHDLDHFDELPINGETQKTISLDYKKFLNEHLQEACTPELKPVEKTNGSFLWCEVEKYLNSTLKEMTEVPRVEDLCCTLYDMLASIKSGDELQDELFELLGPEGLELIEKLLQNRITIVDRFLNSSNDHRFQALQDNCKKILGENAKPNYGCQVTIQSEQEKQLMKQYRREEKRIARREKKAGEDLEVSEGLMCFDPKELRIQREQALLNARSVPILSRQRDADVEKI
notes: ASCC3, human, N-terminal region, residues 1-400; The results say insect cells; source: insect cells, recombinant, purified (Ni-NTA; SEC step omitted); not shown: His10, N-terminal, cleaved
B11: ASCC3^1-22 peptide R5L (peptide)
peptide: MALPLLTGALRSFSNVTKQDNY-NH2
B12: ASCC3^1-197 (domain or fragment, human, UniProt Q8N3C0 1-197, looked up)
chain: MALPRLTGALRSFSNVTKQDNYNEEVADLKIKRSKLHEQVLDLGLTWKKIIKFLNEKLEKSKMQSINEDLKDILHAAKQIVGTDNGREAIESGAAFLFMTFHLKDSVGHKETKAIKQMFGPFPSSSATAACNATNRIISHFSQDDLTALVQMTEKEHGDRVFFGKNLAFSFDMHDLDHFDELPINGETQKTISLDYK
notes: as for B5

Ends that are not written are not given here.

Test [1] deals with T1, ASCC2^1-434. Nature of the test: ITC. A general note: Isothermal titration calorimetry measures the heat released or taken up as one component is titrated into another.
For test [2], the target named is B5. Nature of the test: ITC; iTC200; ASCC3 variant (10 µM) in the sample cell, ASCC2 variant (100 µM) in the syringe; 20 mM HEPES-NaOH, pH 7.5, 100 mM NaCl; 25 °C; stoichiometry fixed to 1. The note with it: both partners purified.
The next test has as its target T2, ASCC3^1-22 peptide R5L. Nature of the test: ITC; iTC200; ASCC3^1-22 peptide (10-15 µM) in the sample cell, ASCC2^1-434 (200 µM or 400 µM) in the syringe; 20 mM HEPES-NaOH, pH 7.5, 100 mM NaCl; 25 °C; stoichiometry fixed to 1. The settings on record: both partners purified.
A further test has as its target T3, ASCC3^1-22 peptide R5H. The test is described as above. The note with it: both partners purified.
In a further test the target is T4, ASCC3^1-22 peptide R5G. The description is as above. The settings on record: both partners purified.
For the next test, the target named is T5, ASCC3^1-22 peptide R5C. The description is as above. The settings on record: both partners purified.
The target in test [3] is B5. The test is described as above. The settings on record: both partners purified.
Test [4] concerns the target T6, ASCC2^1-434, elastase fragment of …. The experiment in a line: SEC; SEC of the fragments left after elastase digestion of the ASCC2^FL-ASCC3^NTR complex. The note with it: both partners purified. For orientation: In gel filtration, larger molecules generally elute earlier.
Test [5] deals with T7, Seleno-methionine (SeMet)-derivatized …. Nature of the test: crystal structure; SeMet SAD, 2.7 Å; complex reconstituted by SEC from SeMet ASCC2^1-434 (E. coli) and ASCC3^1-207 (insect cells); hanging drop, 4 °C, 0.1 M MES-NaOH, pH 6.5. The settings on record: both partners purified.
The target of test [6] is T8, Full-length ASCC2 (ASCC2^FL). The experiment in a line: ITC; iTC200; ASCC3 variant (10 µM) in the sample cell, ASCC2 variant (100 µM) in the syringe; 20 mM HEPES-NaOH, pH 7.5, 100 mM NaCl; 25 °C; stoichiometry fixed to 1. The settings on record: both partners purified.

Broadly, the Kd is a measure of binding affinity in units of concentration. Low readings indicate tighter binding, high ones weaker binding. For the molecule B1, in the test with ASCC2^1-434 [1], the Kd was 46500 nM.

B2 yielded a Kd in the test with ASCC2^1-434 [2] of 47.7 nM.

For the molecule B3, in the test with ASCC2^1-434 [2], the Kd was 483 nM.

Molecule B4 had a Kd with ASCC2^1-434 [1] of 21600 nM.

In the case of B5, the entries for the “fold weaker interaction than with WT ASCC3^1-22” value in the test with ASCC3^1-22 peptide R5L and with ASCC3^1-22 peptide R5G were around 8 fold and around 11 fold, respectively. In addition, the “fold reduced affinity compared to WT ASCC3^1-22” value in the test with ASCC3^1-22 peptide R5H and with ASCC3^1-22 peptide R5C was above 20 fold in each case.

The molecule B6 showed a Kd with ASCC2^1-434 [3] of 2000 nM.

In turn, B7 had a Kd with ASCC2^1-434 [1] of 43800 nM.

Regarding B8, the binding result in test [4] was “binds”.

Take B9: the binding result in [5] was “binds”.

As to B10, the Kd in test [6] was 3.5 nM.

Molecule B11 had a Kd with ASCC2^1-434 [1] of 15400 nM.

For B12, the Kd with ASCC2^1-434 [2] was 3.8 nM.
